Patent US20190071505A1 (UNIVERSITY OF NORTH TEXAS HEALTH SCIENCE CENTER, published 2019)

T1: NK cell inhibitory receptor NKRP1A (CD161) (human, UniProt Q12918 1-225)
T1 sequence (looked up): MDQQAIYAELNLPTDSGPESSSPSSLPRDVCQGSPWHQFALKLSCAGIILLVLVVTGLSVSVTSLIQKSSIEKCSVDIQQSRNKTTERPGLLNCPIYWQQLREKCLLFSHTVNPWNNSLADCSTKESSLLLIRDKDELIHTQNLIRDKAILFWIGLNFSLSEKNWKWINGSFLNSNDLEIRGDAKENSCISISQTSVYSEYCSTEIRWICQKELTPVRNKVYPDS

B1: Lectin-like transcript 1 (LLT1) (ligand)
chain: MHDSNNVEKDITPSELPANPGCLHSKEHSIKATLIWRLFFLIMFLTIIVCGMVAALSAIRANCHQEPSVCLQAACPESWIGFQRKCFYFSDDTKNWTSSQRFCDSQDADLAQVESFQELNFLLRYKGPSDHWIGLSREQGQPWKWINGTEWTRQFPILGAGECAYLNDKGASSARHYTERKWICSKSDIHV
B2: mouse anti-human LLT1 mAb (clone #2E5) (antibody, V domains shown)
VH: EVQLQQSGADLVKPGASVKLSCTASGFNIKDTYMHWVIQRPEQGLDWIGRIDPANGNTNYDPKFRAKATITADTSSNTAYLQLSSLTSDDTAVYYCAGMDYHFDFWGQGTTLTVSS
VL: DIVMTQSPATLSVTPGDRVSLSCRASQSISDYLHWYQQKSHESPRLLIKYASQSISGIPSRFSGSGSGSDFTLSINSVEPEDVGVFYCQNGHSFPLTFGAGTKLELRR
notes: Mouse monoclonal antibody from hybridoma 2E5; It was detected with a PE-conjugated goat anti-mouse IgG secondary antibody; also called 2E5 mAb

Experiments:
[1] = biological target: T1, NK cell inhibitory receptor NKRP1A …; assay: cell-based or functional assay
[2] = biological target: B1; assay: flow cytometry on 22Rv1 cells (endogenous LLT1), PE goat anti-mouse IgG secondary, ratio to mIgG1 isotype control; clone taken from the FIG. 2 legend
[3] = biological target: B1; assay: flow cytometry on DU145 cells (endogenous LLT1), PE goat anti-mouse IgG secondary, ratio to mIgG1 isotype control; clone taken from the FIG. 2 legend

MFIR (mean fluorescence intensity ratio) [2] | MFIR (mean fluorescence intensity ratio) [3] | Binder | percent of MDA-MB-436 LLT1 siRNA-transfected cells killed by NK cells, 5:1 E:T ratio (51Cr release) [1] | percent of MDA-MB-436 LLT1 siRNA-transfected cells killed by NK cells, 25:1 E:T ratio (51Cr release) [1] | percent of MDA-MB-436 scramble siRNA-transfected cells killed by NK cells, 5:1 E:T ratio (51Cr release) [1] | percent of MDA-MB-436 scramble siRNA-transfected cells killed by NK cells, 25:1 E:T ratio (51Cr release) [1]
– | – | B1 | 21.8% | 63.4% | 18.9% | 42.2%
14.4 | 12 | B2 | – | – | – | –
